Key:
Details in all cases: FMN input: 0 or 200 uM; Eterna round: R93 (includes R88 designs)
MS2 coat protein [1] = test: apparent KD of MS2 coat protein, switch OFF state (with FMN for OFF switches, without FMN for ON switches); designed switch direction (-1 OFF switch, 1 ON switch): 1; higher = weaker reporter binding
How it was run: (§1)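 Designed RNA switches were made by on-chip transcription from Illumina sequencing clusters and then titrated with SNAP-549-labelled MS2 coat protein. Twofold steps ran from 0.7 or 1.5 nM to 3 µM, each lasting 0.8–1.5 h early and 10–20 min late, in 100 mM Tris-HCl pH 7.5, 80 mM KCl, 4 mM MgCl2, without or with constant ligand. Apparent KD is the per-design median of normalised cluster binding-curve fits.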

MS2 coat protein [2] = test: apparent KD of MS2 coat protein, switch ON state; designed switch direction (-1 OFF switch, 1 ON switch): 1; higher = weaker reporter binding
How it was run: as §1

MS2 coat protein [3] = test: apparent KD of MS2 coat protein, switch OFF state (with FMN for OFF switches, without FMN for ON switches); designed switch direction (-1 OFF switch, 1 ON switch): -1; higher = weaker reporter binding
How it was run: as §1

MS2 coat protein [4] = test: apparent KD of MS2 coat protein, switch ON state; designed switch direction (-1 OFF switch, 1 ON switch): -1; higher = weaker reporter binding
How it was run: as §1

Sequence | apparent KD of MS2 coat protein (MS2 coat protein [1]) [nM] | apparent KD of MS2 coat protein (MS2 coat protein [2]) [nM] | apparent KD of MS2 coat protein (MS2 coat protein [3]) [nM] | apparent KD of MS2 coat protein (MS2 coat protein [4]) [nM]
UGAAGACAUGAGGAUCACCCAUGUGGGAUUAUGGGAGGAUAUACAAAGACGAGAGUCAGAGUAGAAGGCCUAGGAA [salish99-ss1-116(!)] | 68 | 36.1 | – | –
AUAUGAGCUAUGGAGGAUAUCCAUAACAAGACAUGAGGAUCACCCAUGUAAGAAAGAAAAGAAUGGGAGAAGGCCAUAGCUCAAU [SS 2 M46] | 63.7 | 37.9 | – | –
AUAUGAGCUAUUGAGGAUAUCCAUAACAAGACAUGAGGAUCACCCAUGUAAUCAAAACAAUAAUGGGAGAAGGCAAUAGCUCAAU [SS 2 M48] | 44.1 | 36.7 | – | –
ACAGCUGAAGGAUAUACUUGGGAAAAAAAAAAAAAAAAAAAACAUGAGGAUCACCCAUGUAGAAGGUCAGCUGA [Brourd - Exclusion 2 - Sub 1] | – | – | 43.5 | 82.2
AAAAGUCGAGGAUAUGCAAAAUGAUUGCGAAAGCAAUCAAAACAUGAGGAUCACCCAUGUAGAAGGCGACAAAA [Fiskers Exclusion 2 D3] | – | – | 11.1 | 19.6
AAAAAGCUAGGAUAUACGAAAAAAAAGGGUAAAAAAUAAAAACAUGAGGAUCACCCAUGUAGAAGGAGCAAAAA [Mat - Exclusion 2 - Tesla mod - D36] | – | – | 77.9 | 43.2
GGUUGGCGAGGAUAUACAUGAGGAUCACCCAUGUGAGCGAAAAAAGUGAGAAAGAAAAGUAGAAGGCGCUGACG [salish99-ex3-50] | – | – | 60.5 | 45.7
AACAUGUAAGGAUAUCUAAGAAAAGAAAAGAAAGAAAAGAAAGAGAAGGUACAUGAGGAUCACCCAUGUAAGAA [EteRNA is fun!] | – | – | 18.3 | 32.7
AGUUGGCGAGGAUAUACAUGAGGAUCACCCAUGUGAGAGAAAAAAAGGAAAAAAAAAAGUAGAAGGCGCUGACA [Mat - Exclusion 3 - Lego mod - D44] | – | – | 69.1 | 43
GCUUGGGAAGGAUAUACAUGAGGAUCACCCAUGUGAGAGAAAAAAGUGAGAAAGAAAAGUAGAAGGUCUUGAGG [salish99-ex3-84] | – | – | 69.4 | 69.5
AAAAAGUGAGGAUAUGGUAAAAAAAAAAAAAAAAAGCACCUCCAGAAGGCACAUGAGGAUCACCCAUGUCGAAA [Jolly's Folly 6 - Jieux - Exclusion 4] | – | – | 31.3 | 24.4
ACAAGAUCAGGAUAUACAUGAGGAUCACCCAUGUAAAUCAAAAAGGGACUUACUUAAUGUAGAAGGGAUCAUGU [EX3 279: Random 15] | – | – | 106 | 28.6
AAAAAAGGAGGAUAUACGUACAUGUCAAAAGACGUGAAGGGACAUGAGGAUCACCCAUGUAGAAGGUUUAAAAA [JL Wide Open 31] | – | – | 18.3 | 49.1
AAAAAACAUGAGGAUCACCCAUGUGAGGAUAUGGAAAAGAAAAGAAAAGAAAGAAGAACCAGAAGGCACAAGAA [Khafre] | – | – | 37.9 | 30
AAGAAGCGAGGAUAUACAUGAGGAUCACCCAUGUAAAAGAAAGAAAAGGGAAAGAAAAGUAGAAGGCGCAAGAA [Nebpehtire Ahmose I, Ahmosis I] | – | – | 177 | 53
GAAGUACGAGGAUAUACAUAGAUACAGAUACAUGUAGACGUACAUGAGGAUCACCCAUGUAGAAGGCGUACAAG [Mat - Same state - Mayanna Mod - D117] | – | – | 129 | 137
AACAGUACAGGAUAUACAUGAGGAUCACCCAUGUGAGAAUUAAGCAGCGUAACACAAAGUAGAAGGGUAAUGGA [Ruby 19] | – | – | 43.9 | 39.9

Sequence | apparent KD of MS2 coat protein (MS2 coat protein [1]) [nM] | apparent KD of MS2 coat protein (MS2 coat protein [2]) [nM] | apparent KD of MS2 coat protein (MS2 coat protein [3]) [nM] | apparent KD of MS2 coat protein (MS2 coat protein [4]) [nM]
AGGGAGUGAGGAUAUACGAAAAAAAAAGAAGGAAAAAAAGAGUAGAAGGCACAUGAGGAUCACCCAUGUAAGAA [milkweed 13] | – | – | 26 | 35.8
AAAACACAUGAGGAUCACCCAUGUGAGGAUAUGCUAUGGAAAUAAAAAAUAAAACAUAGCAGAAGGCACAAGGA [Mat - Exclusion 1 - Eli mod - D45] | – | – | 49.1 | 31.1
UUUACGUGAGGAUAUGCGAAUAGAACGUAAGUCAUACAGACGCAGAAGGCACAUGAGGAUCACCCAUGUGAACC [JR_Exc004_Sub312] | – | – | 49.8 | 20
AUAAAGUCAGGAUAUGUAAAAAUAACGAAAGUUAUAAAUAAACAGAAGGGACAUGAGGAUCACCCAUGUAAAAU [Meechl MS2 Ex4] | – | – | 41.2 | 47
AUGAGAGCAGGAUAUGCAGGUGAGCCGGAAGAAAGAAGAAGACAUGAGGAUCACCCAUGUAGAAGGGCUAGCCC [Madiesxe] | – | – | 38.7 | 41.9
AAAGGGUCAGGAUAUCGAUUAAUAAUAAAAUAAAUGAAGAUCGAGAAGGGACAUGAGGAUCACCCAUGUAUAAC [May 79] | – | – | 64.6 | 41.8
AGCUAGUCAGGAUAUACGAACAUGUCAAAAGACGUGAAAAAACAUGAGGAUCACCCAUGUAGAAGGGACUAGCA [Mat - Exclusion 2 - JL mod - D11] | – | – | 14.6 | 18.8
CUCUUGUCAGGAUAUGUAAGAAAAGAAAAGAAAGAAAAGAAACAGAAGGGACAUGAGGAUCACCCAUGUAAGAA [EteRNA is fun!] | – | – | 53.1 | 78.9
CUCAUGUGAGGAUAUCAGUAGUAAAAAAAUAAAAUUACUACUGAGAAGGCACAUGAGGAUCACCCAUGUGUCUU [EX4 331: Super Stable 31] | – | – | 27.2 | 45.8
AACAGUACAGGAUAUACAUGAGGAUCACCCAUGUCACAACAAAGCAGCGCAACACAAAGUAGAAGGGUAAUGGA [Ruby 15] | – | – | 40.4 | 34.6
AGAAAGUGAGGAUAUACAUGAGGAUCACCCAUGUAGAACGAGAGUUAUAAAAAUGGAAGUAGAAGGCGCAAAAG [water's exclusion 3 2nd] | – | – | 34.8 | 28.6
AAGAUGUCAGGAUAUGCUGCUCGUCACGAAAGUGAUGAGUAGCAGAAGGGACAUGAGGAUCACCCAUGUAAAGA [Exclusion 4.1c (Exclusion4-cac2 - mutated U at 5)] | – | – | 140 | 112
AAAGGAUCAGGAUAUGUGUGGGAAAAGUGUGUCCAAAAAAAACAUGAGGAUCACCCAUGUAGAAGGGAUCCAAA [Mod 6 of Normal (20/19) by Nando, Round 1] | – | – | 265 | 487
AAAAUACAUGAGGAUCACCCAUGUGAGGAUAUCUUAAAGGGAAUAAAAUAACUCAAAAAGAGAAGGCACAAAAA [Ex 1 May 29] | – | – | 44 | 35.8
AAUAGUGAAGGAUAUACAGGAGAAGAAAGAUAAAAGAAAGAACAUGAGGAUCACCCAUGUAGAAGGUCAGAAGU [JR_Exc002_Sub1229] | – | – | 19.9 | 27.1
AGUUGGCGAGGAUAUACAUGAGGAUCACCCAUGUGAGAGAAAAAAGUGAGAAAGAAAAGUAGAAGGCGCUGACA [Norbert Elias] | – | – | 202 | 49.2
AGCUAGUCAGGAUAUACGAAAAUGUACGAAGCUGAGAAGGGACAUGAGGAUCACCCAUGUAGAAGGGACUAGCA [Diamond 35] | – | – | 52.5 | 39.2

— the supplement of paper PMC9170038
